Assay results published in patent publication US20200339702A1 (ULTRAHUMAN THIRTEEN, published 2020).
Substitutions are numbered along the chain they refer to.

T1: rhesus monkey ERBB3 human Fc tagged recombinant protein (rhesus monkey (Macaca mulatta), UniProt P21860 20-643 (human entry), limits assumed)
T1 construct: also called rhesus ERBB3-Fc; rhERBB3
T1 chain: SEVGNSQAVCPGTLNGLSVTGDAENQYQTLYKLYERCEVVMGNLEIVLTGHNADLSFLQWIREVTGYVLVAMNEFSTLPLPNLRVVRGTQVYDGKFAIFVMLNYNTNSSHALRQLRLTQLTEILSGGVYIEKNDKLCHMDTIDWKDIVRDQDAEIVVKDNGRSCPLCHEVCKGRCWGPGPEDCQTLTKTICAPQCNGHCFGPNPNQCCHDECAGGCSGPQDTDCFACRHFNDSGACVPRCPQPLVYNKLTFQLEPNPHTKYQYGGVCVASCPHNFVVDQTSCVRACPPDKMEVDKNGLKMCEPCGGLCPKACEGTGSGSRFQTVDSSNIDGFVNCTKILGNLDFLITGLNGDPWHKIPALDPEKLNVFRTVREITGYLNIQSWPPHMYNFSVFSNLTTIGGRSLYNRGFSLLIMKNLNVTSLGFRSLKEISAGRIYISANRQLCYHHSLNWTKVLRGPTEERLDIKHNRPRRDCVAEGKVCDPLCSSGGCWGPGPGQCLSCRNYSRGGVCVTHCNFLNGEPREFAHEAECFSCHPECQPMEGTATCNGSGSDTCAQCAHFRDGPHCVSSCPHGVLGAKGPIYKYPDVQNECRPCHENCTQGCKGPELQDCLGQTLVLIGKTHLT

T2: rhesus ERBB3 on transiently transfected HEK-293 cells (rhesus monkey (Macaca mulatta), UniProt P21860 20-1342 (human entry))
T2 construct: also called rhesus ERBB3+ HEK-293 cells
T2 chain: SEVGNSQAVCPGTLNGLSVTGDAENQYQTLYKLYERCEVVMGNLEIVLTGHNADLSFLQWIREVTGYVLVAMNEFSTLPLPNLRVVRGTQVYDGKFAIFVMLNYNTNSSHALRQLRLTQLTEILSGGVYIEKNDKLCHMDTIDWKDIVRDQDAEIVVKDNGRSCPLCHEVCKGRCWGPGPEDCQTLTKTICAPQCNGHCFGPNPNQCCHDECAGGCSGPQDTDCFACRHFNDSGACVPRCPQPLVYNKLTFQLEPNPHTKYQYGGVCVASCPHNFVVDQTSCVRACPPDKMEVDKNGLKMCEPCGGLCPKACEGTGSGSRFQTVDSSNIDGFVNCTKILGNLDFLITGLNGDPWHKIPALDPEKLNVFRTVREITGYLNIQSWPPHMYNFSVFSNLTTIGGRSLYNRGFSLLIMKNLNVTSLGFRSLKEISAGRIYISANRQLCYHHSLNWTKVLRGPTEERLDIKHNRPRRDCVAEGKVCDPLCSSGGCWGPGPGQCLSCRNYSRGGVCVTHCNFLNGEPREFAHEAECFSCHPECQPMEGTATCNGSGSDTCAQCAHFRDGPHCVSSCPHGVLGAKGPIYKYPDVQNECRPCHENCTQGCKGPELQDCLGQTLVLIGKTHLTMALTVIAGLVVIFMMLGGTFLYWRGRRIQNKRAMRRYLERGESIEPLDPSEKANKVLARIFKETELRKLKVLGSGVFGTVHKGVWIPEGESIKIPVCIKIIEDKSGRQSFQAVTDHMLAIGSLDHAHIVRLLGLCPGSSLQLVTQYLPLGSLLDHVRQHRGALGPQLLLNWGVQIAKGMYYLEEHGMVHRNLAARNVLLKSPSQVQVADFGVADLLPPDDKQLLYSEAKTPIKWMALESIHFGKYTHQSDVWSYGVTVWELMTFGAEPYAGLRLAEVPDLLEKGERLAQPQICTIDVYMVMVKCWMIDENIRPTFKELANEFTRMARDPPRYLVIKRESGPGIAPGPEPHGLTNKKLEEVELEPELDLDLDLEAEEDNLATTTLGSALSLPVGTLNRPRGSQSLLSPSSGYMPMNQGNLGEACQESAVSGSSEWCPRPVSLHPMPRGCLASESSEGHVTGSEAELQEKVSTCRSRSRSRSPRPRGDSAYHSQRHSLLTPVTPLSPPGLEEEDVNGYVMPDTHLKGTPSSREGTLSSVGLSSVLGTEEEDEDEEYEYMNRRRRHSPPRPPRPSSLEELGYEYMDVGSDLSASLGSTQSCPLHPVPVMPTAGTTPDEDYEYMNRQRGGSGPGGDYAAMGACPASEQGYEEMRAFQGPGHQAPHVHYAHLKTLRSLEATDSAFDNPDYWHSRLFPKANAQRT

B1: 15G11-DI2 IgG1 (antibody, V domains shown)
VH: QVQLVESGGGLVKPGGSLRLSCAASGFTFSDYGMSWVRQAPGKGLEWVSTISDSGSYTYYPDSVKGRFTISRDNAKNSLYLQMNSLRAEDTAVYYCARELGDYDGFDYWGQGTLVTVSS
VL: DIQMTQSPSSLSASVGDRVTITCRASQEISTYLSWYQQKPGKAPKLLIYAASSLDTGVPSRFSGSGSGTDFTLTISSLQPEDFATYYCLQYDSTPYTFGGGTKVEIK
notes: Human IgG1 format, human Ckappa
B2: 15G11-DI3 IgG1 (antibody, V domains shown)
VH: B1 VH
VL: B1 VL with T31S, T94S
notes: as for B1
B3: 15G11-DI4 IgG1 (antibody, V domains shown)
VH: B1 VH
VL: B1 VL with T94S
notes: as for B1
B4: 15G11-DI6 IgG1 (antibody, V domains shown)
VH: B1 VH with G33S, V37I, S56T, L100W, Y108F
VL: B1 VL
notes: as for B1
B5: 15G11-DI8 IgG1 (antibody, V domains shown)
VH: B1 VH with G33S, V37I, S56T, L100W, Y108F
VL: B1 VL with T94S
notes: as for B1
B6: 15G11-DI9 IgG1 (antibody, V domains shown)
VH: B1 VH with G33S, V37I, S56T, L100W, Y108F
VL: B1 VL with S53T, D55Q, T56S, T94S, Y96L
notes: as for B1
B7: 15G11-DI10 IgG1 (antibody, V domains shown)
VH: B1 VH
VL: B1 VL with T31S, I48A, T56S
notes: as for B1
B8: 15G11-DI7 IgG1 (antibody, V domains shown)
VH: B1 VH with G33S, V37I, S56T, L100W, Y108F
VL: B1 VL with T31S, T94S
notes: Human IgG1 format, human Ckappa; also called 15G11-D17
B9: 15G11-DI1 IgG1 (antibody, V domains shown)
VH: B1 VH
VL: B1 VL with T31S
notes: as for B1
B10: 15G11-DI5 IgG1 (antibody, V domains shown)
VH: B1 VH with G33S, V37I, S56T, L100W, Y108F
VL: B1 VL with T31S
notes: as for B1
B11: 15G11-DI11 IgG1 (antibody, V domains shown)
VH: B1 VH
VL: B1 VL with I29A, T31S, I48A, T56S, T94S
notes: as for B1

target: T3, human ERBB3 on transiently transfected HEK-293 cells (human, UniProt P21860 20-1342); assay: flow cytometry, human ERBB3-transfected HEK-293 cells, IgG1 titrated
T3 construct: also called human ERBB3+ HEK-293 cells
Description: (§1) Purified IgGs were tested in FACs for binding to human and rhesus monkey ERBB3 expressed on transiently transfected HEK-293 cells and HEK-293 wild-type cells. The IgG samples were titrated in three-fold serial dilutions starting at 500 nM to 0.008 nM. Binding of IgGs was detected with a mouse anti-human IgG conjugated to FITC. Results were analyzed by examining the Mean Fluorescence Intensity (MFI) of 10000 cells per sample in the BL-1 channel detector of a flow cytometer (Attune™ NxT Acoustic Focusing Cytometer, Invitrogen/ThermoFisher Scientific).

Binder	binding result	EC50 (read off the curve) [nM]
B1	binds	–
B2	binds	–
B3	binds	–
B4	–	~1
B5	binds	–
B6	binds	–
B7	binds	–
B8	binds	–

Target: T1, rhesus monkey ERBB3 human Fc tagged …
Assay: direct binding ELISA on coated rhesus ERBB3-Fc, IgG1 titrated
Description: (§2) Binding and cross-reactivity of the lead panel to the recombinant proteins was initially assessed by binding ELISA. The human ERBB3 human Fc tagged recombinant protein and the rhesus monkey ERBB3 human Fc tagged recombinant protein were coated to the surface of MaxiSorp™ flat-bottom 96 well plate at 1 μg/ml. The purified IgG samples were titrated in two fold serial dilutions starting from 500 nM to 0.008 nM and allowed to bind to the coated antigens. The Fabs were detected using mouse anti-c-myc antibody followed by donkey anti-mouse IgG conjugated to horseradish peroxidase. The IgGs were detected using the mouse anti-human IgG conjugated to horseradish peroxidase. Binding signals were visualized with 3,3′,5,5′-Tetramethylbenzidine Substrate Solution (TMB) and the absorbance measured at 450 nm.

Binder	binding result	EC50 (read off the curve) [nM]
B9	binds	–
B1	binds	–
B2	binds	–
B3	binds	–
B10	–	~0.2
B4	binds	–
B5	binds	–
B6	binds	–
B7	binds	–
B8	binds	–

target: T4, human ERBB3 His tagged, monomeric (human, UniProt P21860 20-643, biotinylated in the Alphascreen assays (sites not given)); assay: Alphascreen competition in solution, competitor h24C05 IgG1, biotinylated human ERBB3-His
T4 construct: Used unbiotinylated as Biacore analyte and biotinylated in Alphascreen; treated as one molecule; also called human ERBB3-His (Acrobiosystems); biotinylated monomeric human ERBB3

Binder	IC50 (read off the curve) [nM]	binding result
B9	~0.5	–
B1	–	binds
B2	–	binds
B3	–	binds
B5	–	binds
B6	–	binds
B7	–	binds
B8	–	binds

Target: T2, rhesus ERBB3 on transiently transfected …
Assay: flow cytometry, rhesus ERBB3-transfected HEK-293 cells, IgG1 titrated
Description: as §1

Binder	binding result	EC50 (read off the curve) [nM]
B9	binds	–
B1	binds	–
B2	binds	–
B3	binds	–
B10	binds	–
B4	–	~0.3
B5	binds	–
B6	binds	–
B7	binds	–
B8	binds	–

target: T5, human ERBB3 human Fc tagged recombinant protein (human, UniProt P21860 20-643); assay: direct binding ELISA on coated human ERBB3-Fc, IgG1 titrated
T5 construct: also called human ERBB3-Fc; huERBB3
Description: as §2

Binder	binding result	EC50 (read off the curve) [nM]
B1	binds	–
B2	binds	–
B3	binds	–
B10	–	~0.2
B5	binds	–
B6	binds	–
B7	binds	–
B8	binds	–

target: T6, human insulin (human, UniProt P01308 25-54; P01308 90-110, limits assumed); assay: development risk ELISA on insulin
T6 construct: Off-target protein in the development risk (polyreactivity) ELISA
T6 sequence (P01308 25-54 limits assumed, chain 1 of 2): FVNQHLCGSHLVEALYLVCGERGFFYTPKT
T6 sequence (P01308 90-110 limits assumed, chain 2 of 2): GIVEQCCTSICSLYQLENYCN

Binder	binding score
B9	< 10
B1	< 10
B2	< 10
B3	< 10
B10	< 10
B4	< 10
B5	< 10
B6	< 10
B11	< 10
B8	< 10
